± gives the standard deviation of the averaged measurements.
The sequences below were run on Saccharomyces cerevisiae (assay: protein stability index of tFT-peptide fusion (C-terminal peptide) (PSI (0-1 scale)); higher = more stable (slower turnover)). Conditions: genetic background: wild type; temperature: 30 C.
Experimental: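 Multiplexed protein stability (MPS) profiling in S. cerevisiae. Random 12-aa peptides (tFT-X12 library) are fused to the C-terminus of a sfGFP-mCherry tandem fluorescent timer, after mCherry and a GGGS linker. Cells are FACS-sorted into 8 mCherry/sfGFP bins and deep-sequenced. The protein stability index (PSI) is the read-weighted bin average, scaled from 0 (unstable) to 1 (stable). Only peptides with >10 reads are reported; cells were grown at 30 °C in SC-His with glucose.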
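Further: PSI is a weighted mean of sequencing reads over stability bins, variants kept only with over 10 reads, mCherry proximal and sfGFP distal, peptide attached via GGGS linker.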

For CLSPSSHLPSVT, which protein stability index is on record?
The protein stability index was 0.685 ± 0.021.

For CLTGSVLVICGN, which protein stability index is on record?
The protein stability index was 0.551 ± 0.06.

For CLVDSSSFSLIF, which protein stability index is on record?
Its protein stability index is 0.742 ± 0.065.

Which protein stability index does the source give for CLVGWAVAVLGD here?
Its protein stability index is 0.458 ± 0.068.

CLVIDDPFLVPF was tested. Which protein stability index did it give?
Its protein stability index is 0.6988 ± 0.001.

CLVRIIRREIKG was tested. Which protein stability index did it give?
Its protein stability index is 0.575 ± 0.018.

With CMCFFMGGWWCV as the sequence, how does the protein stability index read?
The protein stability index was 0.608 ± 0.0067.

CMFPVSHRLLYL was tested. Which protein stability index did it give?
The protein stability index was 0.615 ± 0.047.

CMGRCGVCCERS was tested. Which protein stability index did it give?
The protein stability index was 0.711 ± 0.045.

How did the protein stability index turn out when CMWDAVGFALRS was run?
Its protein stability index is 0.72 ± 0.011.

CPGNRQEMLKSR was tested. Which protein stability index did it give?
The protein stability index was 0.676 ± 0.0083.

How did the protein stability index turn out when CPLPTAFRSTHV was run?
Its protein stability index is 0.691 ± 0.019.

CPRLDVSSGFSW was tested. Which protein stability index did it give?
The protein stability index was 0.694 ± 0.025.

How did the protein stability index turn out when CPTVLWPRSPRN was run?
Its protein stability index is 0.688 ± 0.027.

With CQPNRKRETRGN as the sequence, how does the protein stability index read?
Its protein stability index is 0.732 ± 0.064.

CQSARCLPFLLY was tested. Which protein stability index did it give?
The protein stability index was 0.585 ± 0.026.

CQVTDYLVLDWG was tested. Which protein stability index did it give?
The protein stability index was 0.727 ± 0.038.

CQYKRRLKTTET was tested. Which protein stability index did it give?
Its protein stability index is 0.732 ± 0.0085.

For CRGPRASRRRGR, which protein stability index is on record?
The protein stability index was 0.629 ± 0.04.

How did the protein stability index turn out when CRHPYTSTTRLA was run?
The protein stability index was 0.68 ± 0.025.

With CRKLSIPLRGQS as the sequence, how does the protein stability index read?
The protein stability index was 0.6627 ± 0.0044.

CRQCKGTDGDDQ was tested. Which protein stability index did it give?
The protein stability index was 0.673 ± 0.04.

For CRSGERSHKMLL, which protein stability index is on record?
Its protein stability index is 0.63 ± 0.011.

For CRSRRIVGPDSR, which protein stability index is on record?
Its protein stability index is 0.669 ± 0.015.

Which protein stability index does the source give for CSAALTTLLDFA here?
Its protein stability index is 0.715 ± 0.018.

For CSAVVPASARTP, which protein stability index is on record?
The protein stability index was 0.606 ± 0.019.

With CSDRCHNLLLDA as the sequence, how does the protein stability index read?
Its protein stability index is 0.705 ± 0.059.

Which protein stability index does the source give for CSFFNSFPVFWL here?
The protein stability index was 0.7 ± 0.014.

For CSGRDLSLSMAD, which protein stability index is on record?
The protein stability index was 0.744 ± 0.13.

With CSHPHPSSNLPS as the sequence, how does the protein stability index read?
Its protein stability index is 0.683 ± 0.045.

How did the protein stability index turn out when CSKERAPGPSSG was run?
Its protein stability index is 0.705 ± 0.075.

CSLRVSADPLLT was tested. Which protein stability index did it give?
The protein stability index was 0.7315 ± 0.0071.

CSNGRKFKKDDA was tested. Which protein stability index did it give?
Its protein stability index is 0.682 ± 0.059.

For CSPLIISDATSR, which protein stability index is on record?
Its protein stability index is 0.713 ± 0.082.

For CSRGRNSDNNLI, which protein stability index is on record?
Its protein stability index is 0.631 ± 0.043.

For CSSLPSRPLLPH, which protein stability index is on record?
The protein stability index was 0.7209 ± 0.0062.

Which protein stability index does the source give for CSSSALADLLPW here?
Its protein stability index is 0.6537 ± 0.0022.

With CSSSLLDSPPAL as the sequence, how does the protein stability index read?
Its protein stability index is 0.703 ± 0.048.

Which protein stability index does the source give for CSTYPLFPTLPP here?
The protein stability index was 0.693 ± 0.049.

With CTFSGLLEMAGR as the sequence, how does the protein stability index read?
Its protein stability index is 0.7253 ± 0.0024.

Which protein stability index does the source give for CTGSRPPPDCAV here?
The protein stability index was 0.646 ± 0.019.

For CTHCAGVLLHTL, which protein stability index is on record?
Its protein stability index is 0.636 ± 0.044.

How did the protein stability index turn out when CTKKNGYNGKNT was run?
Its protein stability index is 0.652 ± 0.025.

For CVARRPSLIGRN, which protein stability index is on record?
Its protein stability index is 0.655 ± 0.027.

For CVCLGCGGAFAG, which protein stability index is on record?
Its protein stability index is 0.696 ± 0.019.

With CVFAPLFYNVYA as the sequence, how does the protein stability index read?
The protein stability index was 0.585 ± 0.019.

Which protein stability index does the source give for CVGILGAVKSGM here?
The protein stability index was 0.71 ± 0.098.

CVIIDFTLCSVI was tested. Which protein stability index did it give?
The protein stability index was 0.682 ± 0.14.

With CVLVVGGPAGGG as the sequence, how does the protein stability index read?
The protein stability index was 0.575 ± 0.063.

CVMDKEYGYAIK was tested. Which protein stability index did it give?
The protein stability index was 0.729 ± 0.0094.

How did the protein stability index turn out when CVPFFSSSSPLI was run?
Its protein stability index is 0.812 ± 0.037.

For CVPLGCDWRGLI, which protein stability index is on record?
Its protein stability index is 0.6418 ± 0.0058.

For CVQGDGLSFYVL, which protein stability index is on record?
The protein stability index was 0.737 ± 0.07.

For CVSALVADDLVS, which protein stability index is on record?
Its protein stability index is 0.674 ± 0.029.

With CVWSGHIWDLLF as the sequence, how does the protein stability index read?
The protein stability index was 0.764 ± 0.016.

How did the protein stability index turn out when CYGVGTVGLRRG was run?
The protein stability index was 0.712 ± 0.048.

CYGYTESKNRLD was tested. Which protein stability index did it give?
The protein stability index was 0.6524 ± 0.0046.

How did the protein stability index turn out when CYKKRKKTNNYE was run?
The protein stability index was 0.653 ± 0.02.

For CYLGSGFLFFLL, which protein stability index is on record?
The protein stability index was 0.5209 ± 0.00091.

With CYRLFPLSSFIP as the sequence, how does the protein stability index read?
Its protein stability index is 0.689 ± 0.085.

For DAKPNMATGLSI, which protein stability index is on record?
Its protein stability index is 0.703 ± 0.027.

How did the protein stability index turn out when DAWPPVRTVVIN was run?
Its protein stability index is 0.656 ± 0.071.

How did the protein stability index turn out when DCAVNYVGRRRR was run?
Its protein stability index is 0.702 ± 0.057.

With DDGQWVGFCGWT as the sequence, how does the protein stability index read?
The protein stability index was 0.749 ± 0.039.

With DDQLACSHDIDS as the sequence, how does the protein stability index read?
Its protein stability index is 0.643 ± 0.019.

How did the protein stability index turn out when DDQYVGRYYNKT was run?
Its protein stability index is 0.676 ± 0.019.

DEANFHGCYYGV was tested. Which protein stability index did it give?
The protein stability index was 0.647 ± 0.041.

For DESRVYLSIALL, which protein stability index is on record?
The protein stability index was 0.623 ± 0.035.

Which protein stability index does the source give for DFLSLPPISPLL here?
Its protein stability index is 0.787 ± 0.15.

DFYSLAWHFWFL was tested. Which protein stability index did it give?
The protein stability index was 0.69 ± 0.073.

How did the protein stability index turn out when DGCGFIGLSLLE was run?
Its protein stability index is 0.731 ± 0.079.

For DGCSWRSGLVWL, which protein stability index is on record?
Its protein stability index is 0.69506 ± 0.00062.

How did the protein stability index turn out when DGELFPDEPFYL was run?
The protein stability index was 0.801 ± 0.049.

With DGGVGRALEHGE as the sequence, how does the protein stability index read?
The protein stability index was 0.652 ± 0.0083.

DGLQNACVFMSG was tested. Which protein stability index did it give?
The protein stability index was 0.6906 ± 0.0025.

With DGPALWPRSVVD as the sequence, how does the protein stability index read?
The protein stability index was 0.684 ± 0.1.

How did the protein stability index turn out when DGQNPVAFGSHG was run?
The protein stability index was 0.691 ± 0.057.

Which protein stability index does the source give for DGVRCCTKWTCA here?
The protein stability index was 0.679 ± 0.013.

Which protein stability index does the source give for DGWSEAGQGGKG here?
The protein stability index was 0.679 ± 0.034.

For DHKKNKIKKKKE, which protein stability index is on record?
Its protein stability index is 0.685 ± 0.097.

For DHLVLSGPPPPV, which protein stability index is on record?
The protein stability index was 0.733 ± 0.056.

DHRELPRSRIGT was tested. Which protein stability index did it give?
Its protein stability index is 0.673 ± 0.015.

Which protein stability index does the source give for DICFTPGVVNAS here?
The protein stability index was 0.6587 ± 0.0038.

For DIEKRNKRGVCV, which protein stability index is on record?
Its protein stability index is 0.714 ± 0.058.

With DIKAISVKYTIQ as the sequence, how does the protein stability index read?
The protein stability index was 0.6127 ± 0.0056.

Which protein stability index does the source give for DILACAPCRRGP here?
Its protein stability index is 0.704 ± 0.022.

DKGWRTRKVKDE was tested. Which protein stability index did it give?
Its protein stability index is 0.632 ± 0.03.

Which protein stability index does the source give for DKPRKVLPNENS here?
Its protein stability index is 0.6871 ± 0.0017.

For DKRRSMSGGNMD, which protein stability index is on record?
The protein stability index was 0.68 ± 0.024.

Which protein stability index does the source give for DKSYKTYSVKGQ here?
The protein stability index was 0.6707 ± 0.0018.

For DLARSLVQSLSG, which protein stability index is on record?
Its protein stability index is 0.675 ± 0.017.

With DLEDPAETPNIF as the sequence, how does the protein stability index read?
The protein stability index was 0.72 ± 0.033.

DLGWGRWYVVVG was tested. Which protein stability index did it give?
Its protein stability index is 0.678 ± 0.0083.

For DLHFAVVFPISR, which protein stability index is on record?
Its protein stability index is 0.733 ± 0.013.

DLKIKKNDKKKK was tested. Which protein stability index did it give?
The protein stability index was 0.658 ± 0.0086.

With DLLPGAGRDSRL as the sequence, how does the protein stability index read?
Its protein stability index is 0.775 ± 0.21.

DLSRSPAPPAPL was tested. Which protein stability index did it give?
The protein stability index was 0.6706 ± 0.0014.

Which protein stability index does the source give for DLVQFATEILMI here?
The protein stability index was 0.612 ± 0.0064.

Reference: the supplement of paper PMC10724198
